In the supplement of paper PMC10724198:

Columns and labels:
[1] = test system: Saccharomyces cerevisiae; assay: protein stability index of tFT-peptide fusion in deletion strain of DAS1 (PSI (0-1 scale)); higher = more stable (slower turnover)
Procedure: (§1)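 MPS profiling in S. cerevisiae of two library types built from selected 12-aa C-degron peptides (IN1, IN2, LN1, LN3, VN2, R1-R5, W1-W3, Atg1 and Rpa12 C-termini): saturation mutagenesis libraries and C-terminal +1 capping libraries (13 aa). Each peptide is fused to the C-terminus of a sfGFP-mCherry timer, after a GGGS linker. Cells are FACS-sorted into 8 mCherry/sfGFP bins and sequenced. PSI runs from 0 (unstable) to 1 (stable), measured once in wild type and in the das1Δ or doa10Δ background.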

[2] = test system: Saccharomyces cerevisiae; assay: protein stability index of tFT-peptide fusion in wild type (PSI (0-1 scale)); higher = more stable (slower turnover); settings: genetic background: wild type
Procedure: as §1
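Throughout, for protein stability index of tFT-peptide fusion in deletion strain of DAS1: PSI is a weighted mean of each variant's read distribution over the sorted stability bins, computed only for variants having over 10 reads in total.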
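Throughout, for protein stability index of tFT-peptide fusion in wild type: PSI derived as read-weighted mean over the 8 sorting bins, only variants exceeding 10 total reads kept, mCherry placed adjacent to the peptide and sfGFP distal.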

Sequence	protein stability index [1]	protein stability index [2]
VRGAVGGWGLVG	0.616	0.28
LKILRQKMNHQNR	0.673	0.677
KKHKKGEKQKIN	0.658	0.082
PDKRNHLVKLLN	0.585	0.133
CTSCGYKKRTNN	0.692	0.474
RLIQPLPVQFLT	0.59	0.223
LVVYLSCVACII	0.0431	0.0175
KKHKKGQKQDIN	0.601	0.795
FSMRWTQRYWVN	0.545	0.117
ARWRVGLWRGAV	0.688	0.395
CTSCGYGFRTNN	0.693	0.594
FSMRWTFRYWVV	0.526	0.0991
FSMRWTFRYWKN	0.524	0.634
PSLAASFWRVVE	0.696	0.684
RLIQPMPVQFLN	0.607	0.0562
LKILRQKRNHQN	0.669	0.299
ARWRVNLWRGAS	0.708	0.34
RLIQPLPVQFLNV	0.621	0.599
PKILRQKMNHQN	0.678	0.194
LVVLLSCVACIN	0.0371	0.0235
LVVYLSCVASIN	0.0412	0.0148
LSVYLSCVACIN	0.145	0.0226
ARWRVRLWRGAS	0.671	0.333

Sequence	protein stability index [1]	protein stability index [2]
RLIQVLPVQFLN	0.611	0.0583
VRGAVGGWRLVGF	0.693	0.666
FSMRWFFRYWVN	0.602	0.0657
LLIQPLPVQFLN	0.624	0.0661
VRGAVGGWRQVG	0.677	0.189
PDKRNHLIKLLNE	0.662	0.564
CTSCGYKFRTFN	0.712	0.335
KKHIKGQKQKIN	0.598	0.0778
KKHFKGQKQKIN	0.594	0.0456
KEHKKGQKQKIN	0.634	0.127
FSMRWTFRYWVNW	0.534	0.436
ARWRGGLWRGAS	0.677	0.543
LVVYLSCVACIW	0.0367	0.0175
FSMRWTFRYWVNE	0.542	0.532
RYIQPLPVQFLN	0.564	0.0617
FSMRWTFRYWVNL	0.549	0.139
LKILRQAMNHQN	0.658	0.23
PDKLNHLIKLLN	0.609	0.133
ARWRPGLWRGAS	0.679	0.668
RLGQPLPVQFLN	0.611	0.0875
PDKRNHLIKWLN	0.694	0.182
LKILRQKMNCQN	0.673	0.207
RLIQPLPVQNLN	0.645	0.447

Sequence	protein stability index [1]	protein stability index [2]
FSMHWTFRYWVN	0.664	0.0392
PSLIASFWRVVG	0.672	0.12
PSLAASFWRVVM	0.743	0.282
PDKRNHLIKDLN	0.557	0.628
VRGAHGGWRLVG	0.662	0.146
LVVYLICVACIN	0.0584	0.0186
PDKRNHLIKLLNY	0.657	0.16
LKILRQRMNHQN	0.662	0.251
PSLAASFWRVVL	0.724	0.617
RLIQPLPVQFLNL	0.656	0.636
LKILRQKMNHIN	0.671	0.183
KKHKKGQKQKINC	0.658	0.333
ARWDVGLWRGAS	0.729	0.543
RLIYPLPVQFLN	0.58	0.0272
PSLAASFWRVVGV	0.685	0.674
KKHKKGQKQKIE	0.585	0.567
CTSCGYKFRTNH	0.68	0.191
FSMRWTFNYWVN	0.719	0.0909
CTSCGWKFRTNN	0.673	0.306
FGMRWTFRYWVN	0.53	0.0525
VRGAVGGVRLVG	0.654	0.645
IRGAVGGWRLVG	0.681	0.154
RLIQPLPVQFLNI	0.644	0.627

Sequence	protein stability index [1]	protein stability index [2]
PLLAASFWRVVG	0.678	0.157
LVVYLSVVACIN	0.0878	0.0255
LKWLRQKMNHQN	0.697	0.146
PSLAASFDRVVG	0.684	0.644
ARSRVGLWRGAS	0.698	0.591
KKHKKGQKQKINT	0.662	0.62
FSMRWTFRYWVI	0.461	0.147
LKISRQKMNHQN	0.677	0.323
FSMRATFRYWVN	0.545	0.0843
CTSCGYKNRTNN	0.696	0.705
VRDAVGGWRLVG	0.654	0.172
RLIQPLPVGFLN	0.587	0.322
LVVYLSCVAMIN	0.032	0.0127
LLILRQKMNHQN	0.673	0.155
PSLAAMFWRVVG	0.691	0.137
KHHKKGQKQKIN	0.581	0.101
VRGSVGGWRLVG	0.681	0.14
PDERNHLIKLLN	0.566	0.179
CTSCAYKFRTNN	0.665	0.172
ARWRVGLWRGFS	0.678	0.599
